Data from the DeepSol protein solubility set.

Experiment: soluble on expression in E. coli; label from the status in PepcDB or PDB records

Sequence	soluble on expression in E. coli
MGSDKIHHHHHHMQVIIVEDEKTLRFSPLADLKPVYDLVTGCFSLRQRFVEALGARQKLTWHLRRHIAPWFAEANPGSVVNRVLEDEVLLVNGRLICDAAVTQFIDARKIAPGEALIQNGNLLFCRTTAEPLHVLETVFPDTIDGMVLAGAFSCVEVSGFRLIENLWDPVAMHPAMMREDGAALALGRIEGEVHPSAILVNPSAITVEKGAEVKAGAVLDASDGFIYIGAGAVVEPVALLMENVYIAPGARVKSGARIYSNVCIGGGAKAGGEIEDSIMEPFSNKQHDGFLGHSYISSWCNLGAGTDTSDLKNNYSPVSIETAHGKMATGQQFLGLLMGEHSKCSIGTRFNTGTVVGISSNIFGNGMPAKYVPSFSWGDGNPGTARYEADKAVETARKVMARRKVEMSAAYEAMFRAVAGE	not soluble
MDEFYISIETVGNNIVERYIDENGKERTREVEYLPTMFRHCKEESKYKDIYGKNCAPQKFPSMKDARDWMKRMEDIGLEALGMNDFKLAYISDTYGSEIVYDRKFVRVANCDIEVTGDKFPDPMKAEYEIDAITHYDSIDDRFYVFDLLNSMYGSVSKWDAKLAAKLDCEGGDEVPQEILDRVIYMPFDNERDMLMEYINLWEQKRPAIFTGWNIEGFDVPYIMNRVKMILGERSMKRFSPIGRVKSKLLQNMYGSKEIYSIDGVSILDYLDLYKKFAFTNLPSFSLESVAQHETKKGKLPYDGPINKLRETNHQRYISYNIIDVESVQAIDKIRGFIDLVLSMSYYAKMPFSGVMSPIKTWDAIIFNSLKGEHKVIPQQGSHVKQSF	soluble
MSLTKLLLLQKIKDPDLKQIHRDFPDLELINADEMTNELVDQIEIVYGQFSHLQKGYGFSSWFGKVVPNGKSLKWVQTISAGIDFLPLDQLAKRGIMVSNMSGLHSEAISENVLAYILILNRGLKFALANQAKQSWDFNFPKIKQLQDKKILIFGTGAIGSAIAKILQAFDVEVIGVNRHGKDLKYFDRVITQEQLGDFADADYLISDMPLTTQTRGYFDSDFFSLFKKQPIFINVGRGPSVVEKDLIKALKADILSGAALDVFEHEPLASDSPLWKMENVIVTPHSSALLEHFQRDAYKIFGPNLKSYLANGEGHHHHHH	not soluble
MGSDKIHHHHHHMSEVHTTIIDLDAGAVFSGTPSGRIIKGFDKPCAHTPNIDPDYVFHECSRDIVVWLMDSSDPLYVFGPTGSGKTSAIKQLAARLNYPVFDVTGHGRLEFPDLVGHLSVRDGSMEFQYGPLALAMRHGGILLLNEIDLLEPATATGFNGILDGEPLCIPENGGEIITPHPMFRFAATANTNGGSDDTGLYQGTLRQNLAFLDRFWLCEMPYPAPEAEKALLERRAPMLPDDIRTRMVDYANEVRRLFMGESGTTYGHSIEVTFSTRTLLRWADLTVRFQPLARQGIQPLTYALDRALGFKASKDTRTTLHELAQRLFPQHAATGE	not soluble
MSLPVCYYLDATGGDDNNSGLAPDEAWKSLEKLRGVKLLPGNKVLLKRGEVFNGELEITGQGIPEDRIYIDAYGDDERKPCIVGYDTSLYAARICNSDYITMQNLEIVNTGRQPLPYRSGLKIECMDYGVSQNIVVNNVTVRDVNGSLVKEKGGGCGIYIVNGGEKKISTFNRLTIENCHILRCTRNAMIWAAYSDRQNWHPSKHTVIRGNLIEEVPGDGIVPIGCDSTLIEYNVMRDCPDMLPDTEAAAGIWPWSCDNTLVQFNEVSGHKAPWDAQGFDSDWNCRGTVIQYNYSHDNYGGLVLVCNDGTADASFNVGNLGTIVRYNVSIGDGVRPEPTRAGMFSPAVHLAGPVKDSRITRNIIHVNRKPAADIDRTMITLDSWGGYPDSTFISGNIFYAPESSRFQLTESTHNFFEGNYYLGRFEKLPEDGKACQSAEIYQKEVLAKDENGYQGLALLMDTVEVTGVKGVFVNKEAIENFFSRLEKEGHHHHHH	soluble
MGSDKIHHHHHHMKSNGHATRLRTTPSLGGQSHDTRARMIEAAIEVFGSVGYDGATTRQLAERAGVNQAAIPYHFGGKRELYVAAAQAIADYMRSRIEPLIDELRTASVDPVGHIDAVVMRFFQFIAGDEEPEAWTVFFVRCERDADDAFRIIYYQSVARFQAALIAEVAAATGRSPDDEDLKVRVAVVLGAISNFRTLRNVMLSSLGWDTFDAERKLTVETAVRRLALAELLGIHADAPSDVHPPLGSASGAQPSPTARP	not soluble
MGSDKIHHHHHHMEEANFYHALKIDNDRCIGCTHCMKECPTGAIRIRDGKALIHKDWCVDCGECLKSCPTEAIYVEQDDFQRIFDYKCRVALMPTVFIGQFSKYTTEKEIISAVMELGFTHVFQVEFTADMIHKEMVRQMENAEEKPVISSFCPAIVRLIQVRFPALVDNILLVKAPVNASATYYHKILEGQGVPSEEIGIFYVTPCAAKIAALKGAEGYSSTIKGVINMDTLYNKVYHILKNRPRGYEPECELPPPLTKKEMRWSQTGGEAKHFSGRCLAIDEIHNVIDFLERMETTSEVRNVDFLELRACDRSCAGGVLAVANRFLTAERIMKRSMNRDKVPMIYAADNFEALSYLRQHITIRPVQPNPKRLYDGTIDEMLKKMEQVRKLMCYLPGIDCGACGSPNCQSLAEDIVRHEAQFSDCVFMQRNMEKHGKLDQEHAFRIVEKTWGKDRLNKDCYKKGAKYEGL	not soluble
MGSDKIHHHHHHMTKLRIAVQGCCHGQLNQIYKEVSRIHAKTPIDLLIILGDFQSIRDGQDFKSIAIPPKYQRLGDFISYYNNEIEAPVPTIFIGGNHESMRHLMLLPHGGYVAKNIFYMGYSNVIWFKGIRIGSLSGIWKEWDFNKQRPDWNDLENNNWKANIRNLYHVRISDIAPLFMIKHRIDIMLSHDWPNGVVYHGDTKHLLKLKPFFEQDIKEGKLGSPVTWQLLRDLRPQWWLSAHLHVRFMASIKHNKRSHEPPNKSTSKTKKNNNEIDLDLSSDEDERSGIMNCQEENEYDSKYGETRFLALDKCLPRRRWLEILEIEPDTSHASWKDENHRMFWDPEFINNLVICQKNKNLLSNKPFNSVNWIELSQSNREEGRDIDWENYAIPAYTLDIQKDEVRQTKAFISKFMT	not soluble
GPGSMALPRLQMFALASRIEELVLDSVTVHPHSVVAIGNAERQGNGQPPPPSNWVPLSDLASLQKLRRLDMTNCKGDFDCAGIARCCFLRSVHLSGCNVKDADVPHLAQLPCVEELLLSRTRITNVQALAAGKGLRIIQLSNAQVDSDGIDGLQTLPYLTRLDLSSTLVSDVNCLGQSQSLIYLNLAKTHVTSEGIAGLSRLLTLEHLMLNNNNIRDVSFLAESHSLKTLSLQSTLVDSAGLEGLGRLRTLQDLSLAHTRVTNVTKLQHCRNLWRLDLQGSFVDQAGIVGLERLPKLRVLVLSKTDVASLELILKSESLEQLEVKFSHVNERSAFFGVTKASALTDVTLTHCDVSDINNLGMCKELRLLNVWSSKVTSEGIAGLCDARSLQEVDLAETAVTDISPLLSCTKIQALILYRSSVRSLDGIGALQQLRRLDIAETSVSSIRSLSACQRLEILNLSNTAVDDDGFQGIGQAQSLKVVSMSFTAITQVGQLGQCSHLEELHAQSCPVTSEGLVGLERACCLVKLNLSYTKLQSGIQRLTNCRKLLKLNVKFTEVPYDEVAYVKRHLPSCRVMNDAAQRMAKDVTLLT	not soluble
MSLKINNLVDLHCHILPAIDDGSPSLEASLELARQAVADGIRYILATPHHMDRHYLNHAGDVVAAVEAFQAELDVNDIPLTIFPGQEVHLNGQLMEKVDDLLSIDTGRHYLLLELPHEMVPSYLDEMIFQLSCEGITPVIAHPERNAQIIAEPQRLYKLAEDGVLAQVTATSLVGTFGEQVQRTAKEFVKCGLVQVVASDAHTLKNRGFAMTKAYQVLNEMDSKYPERFATNARDLLNGEQIEMGQIEIPRKQRKHWLFEGHHHHHH	soluble
SDPRRNFQPGGYDSRNTFTSGSFGPPDFGESDEAELVSVSWNQDYSCFAAGTSHGFRIYNCEPFKETFRRELKDGGFKIVEMLFRSNILALVGGGPNSQYPSNKVLIWDDHQGRCISEFTFRSEIRAVKLRRDRIVVVLEHKIYVYNFMDLRLLHQIENMANPRGLCCLSHHMNTSVLACPGIRRGEVRVEHFGLNMVQIINAHDSNIACMTLTLDGLLLATASTKGTLIRIFNTMDGTRLQEVRRGVDRADIYSIALSPNVQWLAVSSDKGTVHIFSLRVRVIGEDAYSTEHETSSNSLQPLVSPASGANPGSSLSFLRGVLPKYFSSEWSFSQFHVPEVTQYFAAFGAQNTIAIIGLDGSFYRCNFDPVNGGEMTQLEHFHFLKQDSPR	soluble
MSSDPWGRVDETGTVYVRTADGEQVVGSWQAGSPDEALAYFERKYEGLVVEIGLLEKRVKTTDLSAKDAQTAIDHIREQVDAHHAVGDLDVLRKRLDKLVETVAARREERKAQRAKQSDEARHAKESLVVEAEELAQSDQWRAAGERLRSLVDTWKGLPRLDRKSDDELWHRFSHARSAFSKRRKAHFASLDAQREDARKAKEKLVAEAEALSGSTDWGPTAARYRELMGDWKAAGRAQREHEDDLWNRFRGAQDVFFAARSSVFAERDAEQSENLKLKEELAEEAEKLLPISDLKAARAAFRSLNERWEAIGHVPRDARPKVEGRMHAVERALQESEEVEWRRTNPEARARAEGLTGQLQAAVDKLQGQIEAARSAGNNAKADKLQKELDGRQALLDQALKGLHEFGG	not soluble
QRSTFGTKHMVFRTDQLIDGIERNVRITSEEVNAALPVPLLDRQDPGAILISGSSYTEPSEALQTMREAMTQEKFSGSVEIPLGIVRALLDLGFTDEAASWLEDLVPRLGNEWRHQWYSGVTSLLLDDYLTAQQHFNEVYNILPGESAPKLARAAVCEMLLQEKGLESTALLDPAVTVAAADIKGEGMSNIWRELTSDPATLRFKAIYLYALVWRTNPTTVSSAFGLARQLAAENQIDLAVSTLDRVPQNSTHRRMAELTAILHLLGDLSEARLRRAARRLEAIPTNEPRFLQIQIAIMNAALQWLRTGGEAANDPIFEYPFTQRGLRNGLSATLRQLARSAPSSHRYALVDVANQVRPMTWF	not soluble
MGSDKIHHHHHHMTAPSPEAWLYMLLQTARELELPWLDLIVDQAEMGARWQSRVGALYPPRMLLQDTPHAEAADEGPVLVRLDANQPQTRLLKLLRQWQGQPRVLALFSGWDYDQLAERLTLCMQASWDKGLQQGVLRFHDPRLFAAVVDALDEPRRQLLLEPAVQWHWLDRDGHARMLDATALQSLPPLEWVHDTLTLEQPHIDALACWHLAETWRQNHLLVPQLYGLDSEEELVRRLAQAHQAADKAKLWSEAERIPVVERMLRENA	not soluble
MGDSTFLDRMLLQLRSTCKYYSGYPKDLGPSRVLHFTSEREFVQLLHQGYPVVVAFTIRSNYTQHLDRMLEEAAAEFYPNIKFMRVECPKYPGFCITRQKNEYPFIEIFHSPQHAGNEGKVQDPNITRYSVKVVPYNYDMSPYGFREFFKRQGVRTSDPK	not soluble
MEEDLLGICGFDSSKKYRLEELAKYQSGSCIEFEDDDEMAVDYPCPFCSDDYDLVELCHHIDEEHQLDANNGICPVCSRRVKMHMVDHITTQHRDVFKRLYKDESYSAFSPGTRKYLQSLIDEPLSTNHTSKSVLDPLLSFIYNPPSPKKSKLVQPDSSSEASMEDNSLIRDSTEKDWESPSPLSDTELLEKAKKREFVQGLISSAIFDHIYNF	soluble
MSKLAIIAGDGIGPEVTAEAVKVLDAVVPGVQKTSYDLGARRFHATGEVLPDSVVAELRNHDAILLGAIGDPSVPSGVLERGLLLRLRFELDHHINLRPARLYPGVASPLSGNPGIDFVVVREGTEGPYTGNGGAIRVGTPNEVATEVSVNTAFGVRRVVADAFERARRRRKHLTLVHKTNVLTFAGGLWLRTVDEVGECYPDVEVAYQHVDAATIHMITDPGRFDVIVTDNLFGDIITDLAAAVCGGIGLAASGNIDATRANPSMFEPVHGSAPDIAGQGIADPTAAIMSVALLLSHLGEHDAAARVDRAVEAHLATRGSERLATSDVGERIAAAL	soluble
